Laboratory results taken from patent US20110091467A1 (CENTRE FOR ADDICTION AND MENTAL HEALTH, published 2011).

B2: [35S]-methionine-labelled D2[IL3-2] probe (peptide)
chain: EAARRAQELEMEMLSSTSPPERTRYSPIPPSHHQLTLPDPSHHGLHSTPDSPAKPEKNGHAKDHPKIAKIFEIQTMPNGKTRTSLKTMSRRKLSQQKEKKATQ
modifications: [35S]-methionine-labelled
notes: also called [35S]-D2[IL3-2]

Legend:
[1] = biological target: B2; assay: conclusion from the peptide competition in the in vitro binding assay (GST-DAT[NT1] with [35S]-D2[IL3-2])
[2] = biological target: T1, GST fused DAT[NT2] (A16-T43) (UniProt P08515 1-218 = GST); assay: in vitro binding assay: GST fusion on glutathione beads with the [35S]-D2[IL3-2] probe, autoradiography
T1 construct: also called GST-DAT[NT2]

[3] = biological target: T2, GST fused DAT[NT3] (K35-D68) (UniProt P08515 1-218 = GST); assay: as above
T2 construct: also called GST-DAT[NT3]

[4] = biological target: T3, GST fused DAT[NT1] (M1-P26) (UniProt P08515 1-218 = GST); assay: in vitro binding assay, FIG. 1G
T3 construct: also called GST-DAT[NT1]
T3 sequence (P08515 1-218, tags or fused parts left off): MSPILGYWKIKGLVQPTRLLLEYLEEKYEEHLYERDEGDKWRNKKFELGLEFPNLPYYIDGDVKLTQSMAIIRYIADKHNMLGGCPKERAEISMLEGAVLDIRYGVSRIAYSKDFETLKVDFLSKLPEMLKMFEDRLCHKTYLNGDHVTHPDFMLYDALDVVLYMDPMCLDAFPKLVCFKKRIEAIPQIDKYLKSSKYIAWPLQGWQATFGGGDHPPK

T1 sequence (P08515 1-218, tags or fused parts left off): as above
T2 sequence (P08515 1-218, tags or fused parts left off): as above

B1: purified DAT[NT1-1] (M1-V15) peptide (peptide)
peptide: MSKSKCSVGLMSSVV
notes: also called DAT[NT1-1] peptide
B1: binds [1].

B2: no binding [2]; no binding [3]; binds [4].
